Measured values: patent US20190040142A1 (Genentech, published 2019)

B1: bispecific anti-KLB antibody 23B3/28B7 (IgG format) (bispecific antibody, V domains shown)
VH 1: EVQLQESGPGLVKPSQSLSLTCSVTGYSITSGYYWNWIRQFPGNKLEWMGYIRYDGNSNYNPFLKNRVSITRDTSKNQFFLKLNSVTTEDTATYYCTRKGAYYSSFDALDYWGQGTSVTVSS
VL 1: DIVMTQSPSSMYASLGERVTISCKASQDIRSYLSWFQQKPGKSPKTLIYRANRLVDGVPSRFSGSGSGQDYSLTITSLEFGDVGLYYCLQYDEFPLTFGAGTKLKIE
VH 2: EVQLQQSGPELVQPGTSVKISCEASGYTFTDYYINWVKQSRGKSLEWIGDINPNNGDTTYNQKFKAKATLTVDRSSNTAYMELRSLTSEDSVVYYCARRFYSSPFDSWGQGTTLTVSS
VL 2: DIVMTQSPSSLAVSVGEKVTLSCKSGQSLLYSRNQKNYLAWYQQKPGQSPKLLISWASTRESGVPDRFTGSGSGTDFTLTISSVKTEDLAVYHCQQYYSYPYTFGGGTRLEIK
B2: bispecific anti-KLB antibody 4H7/28B7 (IgG format) (bispecific antibody, V domains shown)
VH 1: QVQLQQSGPELVKPGASVKLSCKASGYTFTNYDINWVRQRPGQGLEWIGWIYPRDGSAKYNAKFKGKATLTVDTSSSTAYMELHSLTSEDSAVYFCARRPLYYGSTHWYFDVWGTGTTVTVSS
VL 1: DIVLTQSPASLAVSLGQRATISCKASQSVDYDGDSYMNWYQQKPGQPPKLLIYAASNLKSGIPARFSGSGSGTDFTLNIHPVEEEDAATYYCQQSNEDPRTFGGGTRLEIK
VH 2: B1 VH 2
VL 2: B1 VL 2
B3: bispecific anti-KLB antibody 12B8/2C12 (IgG format) (bispecific antibody, V domains shown)
VH 1: QIQLVQSGPELKKPGETAKISCKASGYAFSNYGMNWVKQAPGKDLKWMGWIDTDTGEATYTDDFKGRFVFSLETSASTAYLQINNLKNEDMATYFCAREEYGLFGFPYWGHGTLVTVSA
VL 1: DIQMTQSSSSFSVSLGDRVTITCKASEDIYNRLAWYQQKPGSAPRLLISAATSLETGVPSRFSGSGSGKDYTLSITSLQTEDVATYYCQQYWSNPLTFGAGTKLELK
VH 2: EVQLQQSGPGLVKPSQSLSLTCSVTGYSITSGYYWTWIRQFPGNKLEWMGYIKYDGGNYYNPSLRNRISITRDTSKNHFFLKFYSVTAEDTATYFCARGDYYASPYGAMDSWGQGTSVTVSS
VL 2: DIVMTQSPSSLSASLGDTITITCHASQDIDVWLSWYQQKPGNVPQLLISKSSILHTGVPSRFSGGGSGTGFTLTISSLQPEDIATYYCQQGLSYPFTFGSGTKLKIK
B4: bispecific anti-KLB antibody 12B8/23B3 (IgG format) (bispecific antibody, V domains shown)
VH 1: B3 VH 1
VL 1: B3 VL 1
VH 2: B1 VH 1
VL 2: B1 VL 1
B5: bispecific anti-KLB antibody 2C12/28B7 (IgG format) (bispecific antibody, V domains shown)
VH 1: B3 VH 2
VL 1: B3 VL 2
VH 2: B1 VH 2
VL 2: B1 VL 2

Target: human KLB/FGFR1c receptor complex on cells (human, UniProt Q86Z14 53-1044; P11362 22-822)
Assay: cell-based or functional assay

Row | Binder | EC50 (nM), luciferase-based reporter assay [nM]
1 | B1 | 0.63
2 | B2 | 1.21
3 | B3 | 1.36
4 | B4 | 0.95
5 | B5 | 0.58
